Biological target: T1, recombinant BoNT/A light chain (recombinant N-terminal domain of BoNT/A, amino acids 1-425) (Clostridium botulinum type A, …, UniProt P0DPI0)
T1 construct: source: E. coli, purified following published protocols
Test: kinetic exclusion assay (KinExA)
Conditions: both partners purified

T1 sequence (P0DPI0 1-425): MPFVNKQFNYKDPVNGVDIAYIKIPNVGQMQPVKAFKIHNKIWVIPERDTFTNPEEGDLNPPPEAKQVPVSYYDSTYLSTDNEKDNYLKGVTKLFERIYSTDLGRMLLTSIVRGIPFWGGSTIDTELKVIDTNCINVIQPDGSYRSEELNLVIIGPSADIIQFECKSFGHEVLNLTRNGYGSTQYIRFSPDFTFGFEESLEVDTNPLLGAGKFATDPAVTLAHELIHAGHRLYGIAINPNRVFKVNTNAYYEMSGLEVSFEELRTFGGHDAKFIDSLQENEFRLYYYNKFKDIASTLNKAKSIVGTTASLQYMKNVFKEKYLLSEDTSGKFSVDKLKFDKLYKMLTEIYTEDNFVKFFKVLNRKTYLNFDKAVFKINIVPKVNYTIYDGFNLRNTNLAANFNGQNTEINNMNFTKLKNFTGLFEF

B1: 4LCA antibody (antibody, V domains shown)
VH: QLQLQESGPGLVKPSETLSLTCTVSGGSISSSSYFWGWIRQPPGKGLEWIGYIHYSGNTYYNPSLTSRVTMSVDKSKNQFSLKLTSVTAADTALYSCATFLGRGAPFDPWGQGTLVTVSS
VL: QPPSVSVAPGQTARITCGGTNIGSKSVHWYQRQPGQAPVLVIYYDTDRPSGIPERFSGSNSENTATLTISRVEAGDEADYYCQVWGSGSDHPGVFGGGTKLTVL
notes: also called 4LCA mAb; 4LCA human monoclonal antibody
B1 gave a Kd of 0.031 nM, a koff of 7.1e-05 s⁻¹ and a kon of 2.3e+06 M⁻¹ s⁻¹.
